Measurements published in patent US12655409B2, “Recombinant lysin and its use in the treatment of Gram-negative bacterial infections” (TELUM THERAPEUTICS S.L., priority 2020, dated 2026).

Tests used:
[1] = system: E. coli strain ATCC 25922; test: Enzyme bactericidal activity assay on E. coli ATCC 25922; format: cell-based, Escherichia coli
Procedure: (§1) Briefly, the different bacterial cultures were incubated in the specific media (Table 1) at 37° C. or 30° C., according to the strain, until reaching an A600 of 0.3. The cells were then deposited by centrifugation (4500×g, 10 min) and washed twice with the corresponding buffer, with the A600 being adjusted to ≈0.3. A volume of 160 μl of the bacterial suspension was transferred to sterile 96-well plates to which there were added 40 μl of the enzyme under study in a range of doses comprised between 1 and 60 μg mL^−1. The control wells were treated with the same volume of buffer […]. The plates were incubated at 37° C. Samples were taken at different times, serial dilutions performed, and they were seeded in plates containing the specific medium to determine viable bacteria. The experiments were repeated at least 3 times. The bactericidal effect of IKB206 (and its variants) was quantified as the number of logs reduced in the presence of treatment, after a given incubation time (log10 (N0/Ni), where N0=number of CFU mL^−1 before treatment, and Ni=number of CFU mL^−1 after the corresponding incubation time in the presence of each treatment).

[2] = system: E. coli strain DSM 17076 with serotype O157: H7; test: Enzyme bactericidal activity assay on E. coli serotype O157:H7; format: cell-based, Escherichia coli; conditions: 15 μg mL^−1
Procedure: as §1

[3] = system: strains from S. xylosus, E. avium, E. faecium and E. faecalis; test: Enzyme bactericidal activity assay on strains of chicken microbiota; format: cell-based; conditions: 15 μg mL^−1
Procedure: as §1

Klebsiella pneumoniae = test: Enzyme bactericidal activity assay on K. pneumoniae; format: cell-based
Procedure: as §1, with “A volume of 160 μl of the bacterial suspension was transferred to sterile 96-well plates to which there were added 40 μl of the enzyme under study in a range of doses comprised between 1 and 60 μg mL^−1.” left out

Citrobacter freundii = test: Enzyme bactericidal activity assay on C. freundii; format: cell-based; conditions: compared with E. coli or K. pneumoniae
Procedure: as §1

Serratia marcescens = test: Enzyme bactericidal activity assay on S. marcescens; format: cell-based; conditions: incubation time of 120 min
Procedure: as §1

Acinetobacter baumannii = test: Enzyme bactericidal activity assay on A. baumannii; format: cell-based
Procedure: as §1, with “A volume of 160 μl of the bacterial suspension was transferred to sterile 96-well plates to which there were added 40 μl of the enzyme under study in a range of doses comprised between 1 and 60 μg mL^−1.” left out

Pseudomonas aeruginosa = test: Enzyme bactericidal activity assay on P. aeruginosa; format: cell-based
Procedure: as §1, with “A volume of 160 μl of the bacterial suspension was transferred to sterile 96-well plates to which there were added 40 μl of the enzyme under study in a range of doses comprised between 1 and 60 μg mL^−1.” left out

[4] = system: E. coli strain ATCC 25922; test: Stability studies by E. coli bactericidal activity assay; format: physicochemical, Escherichia coli; conditions: 29 days of storage; −80, −20, 4, 25° C.; glycerol 0 to 10%
Procedure: To that end, E. coli strain ATCC 25922 and 15 μg mL^−1 of IKB206 dissolved in different concentrations of glycerol (0, 0.2, 2, 5 and 10%) were used. The assays were carried out at different storage temperatures (−80° C., −20° C., 4° C., 25° C.) and storage times (1, 5, 7, 14, 21 and 29 days).

human HEK293 cells = test: Cytotoxicity assay by means of sulforhodamine B; format: cell-based; conditions: 50 to 400 μg mL^−1, 48 h
Procedure: A seeding test was performed with human HEK293 cells before performing the experiment. To that end, three different cell concentrations were seeded in a 96-well plate in 100 μl of DMEM medium+10% Fetal Bovine Serum (FBS). These cells were incubated at 37° C. and 5% CO2 for 72 h, monitoring growth. The initial cell concentration showing 80% confluence at 72 h was selected for the further assays, which in this case was 7000 cells/well. Twenty-four hours after seeding the cells, another 100 μl of medium with the concentrations of purified protein IKB206tags to be tested was added. In this case, 400 μg mL^−1, 200 μg mL^−1, 100 μg mL^−1, and 50 μg mL^−1. The assays were performed in quadruplicate. As controls, the cells were incubated only with culture media and with the buffer in which the protein is dissolved (vehicle control). Buffer volume added as a vehicle control was the same volume of the highest protein concentration. The plate was left to incubate for another 48 h. The results were obtained by means of fixing the cells by adding 50 μl of 50% cold trichloroacetic acid (TCA) per well and leaving the plate to incubate for 1 h at room temperature. After discarding the TCA, the plate was washed with distilled water and 40 μl of 0.4% sulforhodamine B (SRB) were added. […] The results were read in Cytation (Bioteck, USA) at an absorbance of 510 nm.

E. coli ATCC 25922 [5] = test: Efficacy assay using a sepsis model in zebrafish; format: in vivo; conditions: 72 hpi
Procedure: Once the minimum lethal dose is determined, the six-month old wild-type zebrafish (1.2 grams) were inoculated intraperitoneally (IP) with a total of 10 μl containing 5.5×10^7 CFU mL^−1 of the bacterium E. coli grown in LB medium. All the experiments were repeated at least three times.
To study the protection mediated by the chimera IKB206tags, groups of five (5) six-month old wild-type female zebrafish were infected intraperitoneally (IP) with a lethal dose of the bacterium E. coli (5.5×10^7 CFU). After 1 h, the animals were treated by administering 10 μl of IKB206tags subcutaneously with a dose of 1, 0.5, and 0.25 mg kg-1 of body weight. The fish included in the control group were treated with the buffer in which the protein is dissolved. The animals were observed several times a day and the number of deaths was recorded daily 72 hours post infection (hpi).

[6] = uninfected fish, 1 μg g-1
Procedure: The intraperitoneal (IP) route is chosen for an infection model as it is easy and quick to implement, turning this technique into one that is particularly indicated for use in different groups of experimentation animals. One hour after infection with E. coli ATCC 25922, different doses of IKB206 were administered to each of the groups. […] Furthermore, to determine the toxicity of IKB206 in adult fish, assays in which uninfected fish were inoculated with the highest amount of protein used in the efficacy assays (1 μg g-1) were performed.

E. coli ATCC 25922 [7] = test: MIC by microdilution in TP-Na 10 mM pH 6.15; format: cell-based, Escherichia coli
Procedure: The IKB206tags endolysin was purified from the Escherichia coli BL21 (DE3) strain, as previously described.
Checkerboard tests were assessed by the microdilution method, as previously described (Moody JA 1992, Moellering E G., Jr.1996). […] Each microtiter well contained 100 μl of a E. coli inoculum of 1×10^5 CFUs mL^−1, with or without the corresponding compounds, in a final volume of 200 μl of Sodium phosphate (TP-Na) buffer 10 mM pH 6.15 per well and the plates were incubated at 37° C. for 17 h.

B1: IKB206: fusion of Enterobacter phage Arya putative endolysin (SEQ ID NO:1) and domain D8 of Bacillus amyloliquefaciens phage endolysin (SEQ ID NO:2), without tags (protein)
chain: MKTSPNGIAVTKYFESFEARAYPDPATGGKPYTIGFGTTVYPSGAPVRLGDVCTKEQAEKYLQNDLAKFEKIVSDAVRVPLNQGQFDALVSFTYNLGPANLRSSTLLKKLNAGDYAGAAKEFPRWNRANGKVMKGLTRRRAAEQCLFEGMGGASAIERGVAAANSGTPKNVSRGTSSTKTTPKYKVKNGDNLTKIAKKHNTTVATLLKLNPGIKDPNMIRVGQTLNVTGSGGKTHKVKSGDTLSKIAVDNKTTVSKLMNLNPEITNPNHIKVGQTIRLS
modifications: Chimeric endolysin (SEQ ID NO1 + SEQ ID NO2)
reduction in CFU mL^−1 ([1]; 5 μg mL^−1, 15 min of incubation): significantly reducing | incubation time for killing the entire culture ([1]; 15 μg mL^−1): 30 min | reduction of the number of CFU mL^−1 ([1]; 15 μg mL^−1, 5 minutes of incubation): significantly reducing | bactericidal effect (log reduction) ([1]; 15 μg mL^−1, 15 minutes of incubation): more than 3 log | reduction of the bacterial suspension ([1]; 15 μg mL^−1, 30 min of incubation): 5 log | incubation time for killing the entire culture ([1]; 60 μg mL^−1): 15 min | bactericidal activity on serotype O157:H7 [2]: excellent activity | bactericidal effect on chicken gut microbiota strains [3]: virtually no effect | bactericidal activity (Klebsiella pneumoniae; 15 μg mL^−1, 120 min): bactericidal activity | killing of the cells present in the assay (Klebsiella pneumoniae; 150 μg mL-1, 120 min): capable of killing all the cells present in the assay | bactericidal activity (reduction) (Klebsiella pneumoniae; under the tested conditions (15 or 150 μg mL^−1)): ≥ 4 logarithms | bactericidal activity (Citrobacter freundii): significantly lower than that observed in E. coli or K. pneumoniae | bactericidal effect (Serratia marcescens): ~3 logarithms | bactericidal activity (Acinetobacter baumannii; 15 μg mL^−1, 120 min): bactericidal activity | killing of the cells present in the assay (Acinetobacter baumannii; 150 μg mL-1, 120 min): capable of killing all the cells present in the assay | reductions in CFU/mL (Acinetobacter baumannii; 15 or 150 μg mL^−1): more than 4 logs | bactericidal activity (Pseudomonas aeruginosa; 15 μg mL^−1, 120 min): bactericidal activity | killing of the cells present in the assay (Pseudomonas aeruginosa; 150 μg mL-1, 120 min): capable of killing all the cells present in the assay | reductions in CFU/mL (Pseudomonas aeruginosa; 15 or 150 μg mL^−1): more than 4 logs | stability (bactericidal activity after storage) [4]: still fully active | cytotoxicity versus control (culture media) (human HEK293 cells): not toxic | survival (protection) (E. coli ATCC 25922 [5]; 1 μg g-1 (1 mg kg-1) subcutaneously 1 h after infection): 66.6% | survival (protection) (E. coli ATCC 25922 [5]; 0.25 mg kg-1 subcutaneously 1 h after infection): 16.6% | survival (protection) (E. coli ATCC 25922 [5]; 0.5 mg kg-1 subcutaneously 1 h after infection): 33.3% | toxicity in adult fish versus protein buffer [6]: no differences | MIC (E. coli ATCC 25922 [7]): 9.375 µg/mL
